This note sets out measurements from the supplement of paper PMC12042874.

± gives the uncertainty stated by the source.

The nature of the data set: amyloid nucleation score (Sup35N fusion, yeast selection) (log enrichment); library NNK3; higher = more nucleation; inactive = no reads after selection. A digest of the protocol:
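The nucleation score, computed with DiMSum, is the log enrichment of output over input reads, centred on the mode score of non-aggregating sequences. Sequences with under 100 input reads were dropped. Reads were generated by Illumina sequencing of plasmid inserts from psi-negative yeast with Sup35N fused to peptides of 20 random codons, induced with 100 μM copper sulfate for 24 hours and grown 7 days at 30°C on medium lacking adenine and uracil.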
Consider VFTFFSMCMTPSYYPCRLAC, for which the amyloid nucleation score entry is “inactive”.
The entry for VFTPLCAYVVGYLYEVCGDD is “inactive”.
With VFVKCWNVGSCIATDEYMSE the figure was 2.2 ± 0.078; with VFVTRYKTKTPCLMTVRKEL, “inactive”; with VFWLKVSVSLFPVLYGRS, “inactive”.
For VFYGLYF, the amyloid nucleation score result is “inactive”.
VGAHSYHVRTPDTES yielded an amyloid nucleation score of 0.221 ± 0.47.
The entry for VGDVKAISVGCVGVLEFSAA is “inactive”.
With VGEVGGYGEFAE the entry was “inactive”; with VGGFFTSYKNYTK, 0.671 ± 0.27.
With VGGFKTILSIRRAAKCLCVG the entry was “inactive”; with VGGYI, “inactive”.
Take VGHSNNQFSGFEMCHDNTLL: the amyloid nucleation score result was “inactive”.
Consider VGLLVMSVGIERTLWE, for which the amyloid nucleation score entry is “inactive”.
The figure for VGNFSFD is 0.845 ± 0.16.
With VGNLGS the entry was “inactive”; with VGNSHASIHPCKVICSLACD, “inactive”.
For VGQYDTFGLRHHGGYRMRRG, the amyloid nucleation score result is “inactive”.
In the case of VGSGTQSWVRNEMRSMLDLW, the amyloid nucleation score result is “inactive”.
The entry for VGSLVHLGLGWIRTLLLYGV is “inactive”; for VHELIDHKMKMIGLVFGLSI it is “inactive”.
For VHIYSCYTRALDGNGAHSNN, the amyloid nucleation score entry was “inactive”.
VHLNCCTVLKEVRLFT showed an amyloid nucleation score of 0.78 ± 0.26.
Regarding VHTYLSAEWLVFPRHFAVYK, the amyloid nucleation score entry is “inactive”.
Turning to VIARDDINCVRDGGQGLQIS, the amyloid nucleation score result is “inactive”.
Regarding VICFFTTNAEHLQFLV, the amyloid nucleation score entry is “inactive”.
Turning to VIFTIHNGT, the amyloid nucleation score entry is “inactive”.
The entry for VIFVGFWQWYSYISELDCNP is “inactive”; for VIGGVEREQQDRLKL it is “inactive”.
As for VIKSIWQSYGRKRSYLDMSI, the amyloid nucleation score entry is “inactive”.
With VILMEDKSLMSWTRTIIVSM the entry was “inactive”; with VILNCR, “inactive”.
With VINKRRWTSNGNCILEVRHG, the amyloid nucleation score result is “inactive”.
With VKAVLY the entry was “inactive”; with VKFVCKAELLDLT, “inactive”; with VKIFS, “inactive”.
For VKLFKVPLVLSMRL, the amyloid nucleation score result is “inactive”.
The entry for VKNFLGY is “inactive”; for VKSFFSKGSCDNDTNINRRS it is “inactive”; for VKTRTIRVSH it is “inactive”.
Substance VKVFFPIVRCDTYHIYKQWG displayed an amyloid nucleation score of 2.51 ± 0.053.
With VLACSHWLMLSRTKYMMRIV the entry was “inactive”.
Regarding VLANGKTSELRELKVHLLAG, the amyloid nucleation score was -0.274 ± 1.1.
The entry for VLCCLDYIYPVGALGYYACI is “inactive”; for VLDFRRPRNISRS it is “inactive”; for VLDLCDVY it is “inactive”.
Turning to VLEYHTQPWGLAQRQTWLSG, the amyloid nucleation score result was “inactive”.
As for VLFINACYPLIISYQ, the amyloid nucleation score worked out at 1.97 ± 0.066.
With VLFSGFFYLSDNYKLMGFVH the entry was “inactive”; with VLGSRVKGDYCRCLEMECIW, “inactive”; with VLGVVT, “inactive”.
As to VLISVLSRLRCMSGGLYTPN, the amyloid nucleation score result is “inactive”.
The figure for VLIYDVCCALNLCCGFRTFG is 1.77 ± 0.081; for VLLARIDAVFITVLR it is 1.25 ± 0.12.
Turning to VLLFC, the amyloid nucleation score entry was “inactive”.
The entry for VLLFLTFMYSLSFWSMLLRG is “inactive”; for VLLSNNRILYETFL it is “inactive”.
With VLLSRMIYALPGYSVL the figure was 1.93 ± 0.075; with VLLTVECLFYSS, “inactive”.
With VLLYDECMMFVNSLMFTNSE the figure was -0.501 ± 0.66; with VLNDFMCDFGSWPRVIVIRT, “inactive”; with VLRQDISDDQSEAPEMNPHR, “inactive”.
On to VLRSAYAALFLNRFSRFDCR, for which the amyloid nucleation score result is “inactive”.
For VLRSNKYRITMGMGKKFPAL, the amyloid nucleation score entry is “inactive”.
With VLSVSLNACTIGWST the figure was 1.34 ± 0.1.
In the case of VLSVWDHLYLRNSSCAPTYR, the amyloid nucleation score was -0.641 ± 1.4.
With VLVICWFRDDGYSVFLCCQT, the amyloid nucleation score result is “inactive”.
For VLVNGSGRNWEYYISRRFFF, the amyloid nucleation score result was “inactive”.
The entry for VLVVLDVRRGTDLCTF is “inactive”; for VLVVPKQVTWEVGF it is “inactive”; for VMCLVSRPPQWSVLDVSTIM it is “inactive”.
The figure for VMCMCCISVHSTLMFLDITN is 2.85 ± 0.063; for VMDVEIGSASSLYKRTSTSE it is “inactive”; for VMIKSC it is “inactive”.
The entry for VMRALL is “inactive”.
On to VMRGASYFPTELADDDLMPG, for which the amyloid nucleation score entry is “inactive”.
With VMRLHRCKELVCDSIYTLRG the entry was “inactive”; with VMVSYG, “inactive”; with VMYGEVSDTYMAREICKFSA, “inactive”.
As for VMYVVYFHELVYYR, the amyloid nucleation score entry was “inactive”.
VNCQCSSEWCHKNSVYFIRY displayed an amyloid nucleation score of 2.59 ± 0.087.
The entry for VNDVLASLTLCMWLVEWGMK is “inactive”; for VNEIRDILLVSYSKFRAWGQ it is 1.2 ± 0.13; for VNGFRVHWERPEHCYSVLML it is “inactive”.
VNLEDGSGDSCKDNCNGERF: the amyloid nucleation score was -0.821 ± 0.84.
With VNLGDGHVDDSIASQDMWHK the entry was “inactive”; with VNLITREHLKKGSMNNFIAN, “inactive”; with VNNNYEVCNDRDSCPLINFC, “inactive”.
Regarding VNPIERWA, the amyloid nucleation score entry is “inactive”.
With VNVIDLFGFQPSNRLTGNVR, the amyloid nucleation score result was “inactive”.
The entry for VNVTIGIYKRHRYLWSGIAM is “inactive”.
Take VNWRVRWIYSILGKS: the amyloid nucleation score entry is “inactive”.
The entry for VPGMSAVCKMGLLLDVGVHE is “inactive”; for VPPVVSAP it is 1.05 ± 0.12.
With VPRVSSTQDCNRLILRKVCL, the amyloid nucleation score entry was “inactive”.
The entry for VQGIPELALMLSRARGRGV is “inactive”; for VQLLDRNEIFGVWGSIELLQ it is “inactive”; for VQLPVIVSAPPI it is -0.421 ± 1.1.
With VQPSFTMYMEFSCACVAMQL the figure was -0.423 ± 0.49; with VQVMETEMRSVVA, “inactive”.
Regarding VQYNHLRVVSHDVNENGEPR, the amyloid nucleation score result was “inactive”.
Regarding VRDFGLPTWAQLAWMYNANG, the amyloid nucleation score was -0.229 ± 1.1.
Turning to VREFTFYDV, the amyloid nucleation score entry was “inactive”.
The entry for VRESAWGLYNRYFSVFSAVV is “inactive”.
The substance VRGIAIACWSQFCNWRICCR displayed an amyloid nucleation score of -0.231 ± 0.82.
VRGNYRNSFACRVLNHDQFW: the amyloid nucleation score result is “inactive”.
The entry for VRLNALIHDIVMMVWGTMHG is “inactive”; for VRLSKHMLVIDRGLKQLVIY it is “inactive”.
The entry for VRLYYSKPRLKRGDSCVEKY is “inactive”; for VRMRDFKENARRMVP it is “inactive”.
With VRMSRYSEWQDFNIPIEVIV the figure was 0.776 ± 0.16; with VRMTAIFLNLKVWQSNMFVV, “inactive”.
On to VRNLLKMTFR, for which the amyloid nucleation score result was “inactive”.
Turning to VRQWSTFASLMYATENGVNN, the amyloid nucleation score result is “inactive”.
As to VRRDLGFFSRNVT, the amyloid nucleation score result was “inactive”.
On to VRRKDSNSCVSSHTASQSGW, for which the amyloid nucleation score result was “inactive”.
The entry for VRSARRQAGELEGFYCLYQV is “inactive”.
VRSKLYGPDVYPTHLGTAVM: the amyloid nucleation score result is “inactive”.
With VRSQGLHRRVFFIATGIKLG the entry was “inactive”; with VRSTYGNKGFVSQRGLQFSP, “inactive”.
With VRTRWFIAPVCVARGSLCLV the entry was “inactive”; with VSAFFRSKG, “inactive”; with VSCMLLSRDLCLQSFIWMLL, “inactive”.
The entry for VSDILADCPIIRPGGYCCVS is “inactive”.
In the case of VSDLEERSSILG, the amyloid nucleation score entry is “inactive”.
With VSEFRRVYFSAQFSRVGNSC the entry was “inactive”; with VSELPSACDNYIYCCNG, 0.326 ± 0.2; with VSGLFDVTLRGWYG, “inactive”.
With VSGSFVYLLCNS the entry was “inactive”; with VSLQLLWNPMLSYFTFQVGR, 1.16 ± 0.19; with VSMCNLNGVLPLNLFRLGLC, “inactive”.
